Test results taken from patent US12365732 (23ANDME, dated 2025).

Legend:
[1] = biological target: T1, cynomolgus monkey CD96 on cynomolgus monkey PBMCs (cynomolgus monkey, UniProt A0A2K5TWV6 22-569); assay: FACS, % positive curve
T1 construct: whole, on cells
T1 sequence: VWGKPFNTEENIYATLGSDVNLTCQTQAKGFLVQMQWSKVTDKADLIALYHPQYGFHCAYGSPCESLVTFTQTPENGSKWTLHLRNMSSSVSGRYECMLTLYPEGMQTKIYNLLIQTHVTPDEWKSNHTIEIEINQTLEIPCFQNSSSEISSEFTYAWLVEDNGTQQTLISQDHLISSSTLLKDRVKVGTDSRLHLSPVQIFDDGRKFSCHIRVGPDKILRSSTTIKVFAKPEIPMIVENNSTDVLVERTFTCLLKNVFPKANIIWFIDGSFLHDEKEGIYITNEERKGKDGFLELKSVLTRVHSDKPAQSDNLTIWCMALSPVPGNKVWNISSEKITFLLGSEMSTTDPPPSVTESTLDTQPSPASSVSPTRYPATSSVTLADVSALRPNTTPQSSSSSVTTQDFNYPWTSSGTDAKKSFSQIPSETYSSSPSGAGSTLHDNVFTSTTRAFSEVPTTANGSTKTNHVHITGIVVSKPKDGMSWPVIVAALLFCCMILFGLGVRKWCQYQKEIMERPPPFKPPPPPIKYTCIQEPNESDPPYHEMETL
Method: The ability of the anti-CD96 antibodies to bind primary immune cells from human and cynomolgus monkey with lower level of receptor expression was measured. Human PBMCs (StemCell Technologies, catalog #70025) and cynomolgus monkey PBMCs (Primate Biologicals, catalog #CM-MC) were incubated with human TruStain FcX (Biolegend, catalog #422302) for 10 minutes at 4° C., followed by incubation with an anti-CD96 antibody for 20 minutes at 4° C. Cells were washed and the anti-CD96 antibody binding was detected by incubation with anti-mouse IgG-PE (Thermo Fisher, catalog #M30204) or anti-human IgG (Fab) 2-PE (Thermo Fisher, catalog #H10104) for 20 minutes at 4° C. Cells were washed, and immune subtypes were labeled with anti-CD3 (BD, catalog #557705), anti-CD4 (Biolegend, catalog #317424) and anti-CD8 (BD, catalog #557760) for 20 minutes at 4° C. Cell binding was analyzed by flow cytometry with a CytoFLEX (Beckman Coulter). Binding curves were calculated as a percentage of cells positive for bound antibody in the cell type of interest.

[2] = biological target: T2, cy-CD96 (soluble, extracellular domain) (cynomolgus monkey, UniProt P40200 22-516 (human entry), biotinylated in Octet and blocking ELISA); assay: ELISA, blocks biotin-CD96 binding to coated hu-CD155-mFc
T2 construct: the assays name only cy-CD96; also called biotinylated cy-CD96
T2 chain: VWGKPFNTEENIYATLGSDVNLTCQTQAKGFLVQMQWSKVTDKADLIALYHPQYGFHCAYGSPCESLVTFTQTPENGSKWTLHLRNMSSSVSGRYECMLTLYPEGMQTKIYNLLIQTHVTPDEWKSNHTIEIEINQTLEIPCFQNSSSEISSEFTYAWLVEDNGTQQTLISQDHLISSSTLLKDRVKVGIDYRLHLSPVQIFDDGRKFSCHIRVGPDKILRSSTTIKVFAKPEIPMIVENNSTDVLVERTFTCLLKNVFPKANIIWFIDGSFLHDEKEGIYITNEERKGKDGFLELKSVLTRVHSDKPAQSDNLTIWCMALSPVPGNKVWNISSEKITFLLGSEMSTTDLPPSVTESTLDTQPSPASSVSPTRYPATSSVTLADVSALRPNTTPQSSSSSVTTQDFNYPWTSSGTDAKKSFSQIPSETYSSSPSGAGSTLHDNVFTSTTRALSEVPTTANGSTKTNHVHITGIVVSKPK
Method: The selected 5 affinity matured Fab variants of mAb1.v7 Fab were assayed for blocking of human CD155 (hu-CD155) receptor by ELISA as follows. Briefly, 96-well MAXISORP® flat bottom plates (Thermofisher, Cat #439454) were coated overnight at 4° C. with 2 µg/mL goat anti-mouse Fc (Thermofisher, Cat #31168) in PBS. After removing the coating solution, unspecific binding was blocked with PBS containing 1% bovine serum albumin (BSA) and incubation at room temperature for one hour. Plates were then washed five times in PBS with 0.05% TWEEN®-20 (wash buffer) and added […] hu-CD155-mFc in PBS for 1 hour in room temperature. During blocking period, 50 µL/well of 4 nM biotinylated hu-CD96 or 40 nM biotinylated cy-CD96 with serial dilution of the Fab variants 50 µL/well (starting at 2 µM, 1:3 dilution) for two hours at room temperature with PBS containing 0.5% BSA and 0.05% Tween 20 (ELISA buffer) in NUNC F plate (Thermofisher, Cat #269620). Then transferred the antigen-antibody mix solution 80 µL/well into hu-CD155-mFc coated wells at room temperature for 15 min. Plates were then washed with wash buffer to which was added 50 µL/well Streptavidin poly-HRP (Thermofisher, Cat #21140) diluted 1:5000 in ELISA buffer at room temperature for one hour with agitation. […] Enzymatic color development was stopped with 50 µL/well of TMB stop solution (VWR, Cat #95059-200). Plates were analyzed with a SpectraMax i3X plate reader (Molecular Devices) at 450 nm. […] The blocking $IC50$ values for the mAbv1.7 and the 5 selected affinity matured Fab variants (mAb1.v7.2, mAb1.v7.9, mAb1.v7.16, mAb1.v7.48, mAb1.v7.70) are summarized in Table 10 (above).

B1: h10G1 IgG (humanized 10G1) (antibody, V domains shown)
VH: EIQLVQSGSELKKPGASVKVSCKASGYPFTTYGMSWVRQAPGQGLEWMGWINTDSGVPTYADDFKGRFVFSLDTSVSTAYLQISSLKAEDTAVYFCARNIYYGWGNFDYWGQGTLVTVSS
VL: EIVMTQSPDFQSVTPKEKVTITCRASQDIYRNLHWYQQKPDQTPKLLIKHASDSISGIPSRFSGSGSGTDFTLTINSLEAEDAAAYYCLQGYSMPYTFGGGTKVEIKG
notes: human IgG1 N297G
B1 was tested, and the EC50 [1] was 0.12 nM.

B2: mAb1.v7.2 Fab (Fab, V domains shown)
VH: EVQLVQSGAEVKKPGASVKVSCKASGFTFTNNWRHWVRQAPGQGLEWIGMIHFNSGITNINEKFKNRVTMTTDTSTSTAYMELRSLRSEDTAVYYCRSDGVYEGYFDYWGQGTLVTVSS
VL: DIQLTQSPSSLSASVGDRVTITCKASQNVGTAIVWYQQKPGKAPKVLIYSASTRYTGVPSRFSGSGSGTDFTLTISSLQPEDFATYYCQQYSSSPLTFGQGTKVEIK
notes: also called M34R/P52aF/T97V
B2 showed an IC50 [2] of 2.17 nM.

B3: mAb1.v7.16 Fab (Fab, V domains shown)
VH: EVQLVQSGAEVKKPGASVKVSCKASGFTFTNNWRHWVRQAPGQGLEWIGMIHPNSGITNINEKFKNRVTMTTDTSTSTAYMELRSLRSEDTAVYYCRSDGVYEGYFDYWGQGTLVTVSS
VL: DIQLTQSPSSLSASVGDRVTITCKASQNVGTAIVWYQQKPGKAPKVLIYSASTRYTGVPSRFSGSGSGTDFTLTISSLQPEDFATYYCQQYSSSPLTFGQGTKVEIK
notes: also called M34R/T97V
In the case of B3, the IC50 [2] is reported as 1.42 nM.

B4: mAb1.v7.48 Fab (Fab, V domains shown)
VH: EVQLVQSGAEVKKPGASVKVSCKASGFTFTNRWMHWVRQAPGQGLEWIGMIHHNSGITNINEKFKNRVTMTTDTSTSTAYMELRSLRSEDTAVYYCRSDGVYEGYFDYWGQGTLVTVSS
VL: DIQLTQSPSSLSASVGDRVTITCKASQNVGTAIVWYQQKPGKAPKVLIYSASTRYTGVPSRFSGSGSGTDFTLTISSLQPEDFATYYCQQYSSSPLTFGQGTKVEIK
notes: also called N32R/P52aH/T97V
Binder B4 has an IC50 [2] of 4.8 nM.

B5: mAb1.v7.NGS9 IgG (antibody, V domains shown)
VH: EVQLVQSGAEVKKPGASVKVSCKASGFTFTNNFMHWVRQAPGQGLEWIGMIHANSGITNINEKFKNRVTMTTDTSTSTAYMELRSLRSEDTAVYYCRSDGVYEGYFDYWGQGTLVTVSS
VL: DIQLTQSPSSLSASVGDRVTITCKASQNVGTAIVWYQQKPGKAPKVLIYSASTRYTGVPSRFSGSGSGTDFTLTISSLQPEDFATYYCQQYSSSPLTFGQGTKVEIKG
notes: human IgG1 N297G
In the case of B5, the EC50 [1] is reported as 0.073 nM.

B6: mAb1.v7.70 Fab (Fab, V domains shown)
VH: EVQLVQSGAEVKKPGASVKVSCKASGFTFTNRWMHWVRQAPGQGLEWIGMIHANSGITNINEKFKNRVTMTTDTSTSTAYMELRSLRSEDTAVYYCRSDGVYEGYFDYWGQGTLVTVSS
VL: DIQLTQSPSSLSASVGDRVTITCKASQNVGTAIVWYQQKPGKAPKVLIYSASTRYTGVPSRFSGSGSGTDFTLTISSLQPEDFATYYCQQYSSSPLTFGQGTKVEIK
notes: also called N32R/P52aA/T97V
Work on B6 yielded an IC50 [2] of 2 nM.

B7: mAb1.v7.NGS11 IgG (antibody, V domains shown)
VH: EVQLVQSGAEVKKPGASVKVSCKASGFTFTNNFMHWVRQAPGQGLEWIGFIHANSGITNINEKFKNRVTMTTDTSTSTAYMELRSLRSEDTAVYYCRSDGVYEGYFDYWGQGTLVTVSS
VL: DIQLTQSPSSLSASVGDRVTITCKASQNVGTAIVWYQQKPGKAPKVLIYSASTRYTGVPSRFSGSGSGTDFTLTISSLQPEDFATYYCQQYSSSPLTFGQGTKVEIKG
notes: human IgG1 N297G
For B7, the EC50 [1] was 0.025 nM.

B8: mAb1.v7.9 Fab (Fab, V domains shown)
VH: EVQLVQSGAEVKKPGASVKVSCKASGFTFTNNWRHWVRQAPGQGLEWIGMIHMNSGITNINEKFKNRVTMTTDTSTSTAYMELRSLRSEDTAVYYCRSDGVYEGYFDYWGQGTLVTVSS
VL: DIQLTQSPSSLSASVGDRVTITCKASQNVGTAIVWYQQKPGKAPKVLIYSASTRYTGVPSRFSGSGSGTDFTLTISSLQPEDFATYYCQQYSSSPLTFGQGTKVEIK
notes: also called M34R/P52aM/T97V
B8 gave an IC50 [2] of 3.18 nM.

B9: mAb1.v7.NGS10 IgG (antibody, V domains shown)
VH: EVQLVQSGAEVKKPGASVKVSCKASGFTFTNNFMHWVRQAPGQGLEWIGFIHANSGITNINEKFKNRVTMTTDTSTSTAYMELRSLRSEDTAVYYCRSDGIYEGYFDYWGQGTLVTVSS
VL: DIQLTQSPSSLSASVGDRVTITCKASQNVGTAIVWYQQKPGKAPKVLIYSASTRYTGVPSRFSGSGSGTDFTLTISSLQPEDFATYYCQQYSSSPLTFGQGTKVEIKG
notes: human IgG1 N297G
Work on B9 yielded an EC50 [1] of 0.024 nM.
